Publication PMC10169808, “Two legume fatty acid amide hydrolase isoforms with distinct preferences for microbial- and plant-derived acylamides” (Scientific Reports, 2023)

How the values were obtained:
[1] = target: Medicago truncatula fatty acid amide hydrolase 1 (MtFAAH1) (Medicago truncatula); experiment: SEC; Superdex 200 Increase 10/300 GL; 50 mM Bis-Tris-Propane pH 9.0, 100 mM NaCl, 0.03% DDM; mass interpolated from Kav against standards, mean elution volume of six purifications, DDM micelle (about 70 kDa) taken into account
[2] = target: Medicago truncatula fatty acid amide hydrolase 2a (MtFAAH2a) (Medicago truncatula); experiment: SEC; Superdex 200 Increase 10/300 GL; buffers at pH 7.5, 0.06% DDM; mass interpolated from Kav against standards, mean elution volume of six purifications, DDM micelle (about 70 kDa) taken into account
[3] = target: the molecule itself; experiment: SEC; AtFAAH run as reference for the MtFAAH calculations, in solution with detergent; its conditions are not told in the text (Supplementary Fig. S13)
[4] = substrate: C/C=C/C=C\CC/C=C/C(=O)NCC(C)C; experiment: fluorescamine assay of released amine, Michaelis-Menten fit; format: biochemical, Medicago truncatula; details: 100 mM NaCl, 30 °C, apparent
[5] = substrate: CCCCC/C=C\C/C=C\CCCCCCCC(=O)NCCO; experiment: as above; format: biochemical, Medicago truncatula; details: 100 mM NaCl, 30 °C, apparent
[6] = substrate: CCCCC/C=C\C=C\C(O)CCCCCCCC(=O)NCCO; experiment: as above; format: biochemical, Medicago truncatula; details: 100 mM NaCl, 30 °C, apparent
[7] = substrate: CCCCCCCCCC(=O)CC(=O)N[C@H]1CCOC1=O; experiment: as above; format: biochemical, Medicago truncatula; details: 100 mM NaCl, 30 °C, apparent
[8] = substrate: CCCCCCCCCCCC(=O)CC(=O)N[C@H]1CCOC1=O; experiment: as above; format: biochemical, Medicago truncatula; details: 100 mM NaCl, 30 °C, apparent
[9] = substrate: CCCCCCCCCCCC(=O)NCCO; experiment: as above; format: biochemical, Medicago truncatula; details: 100 mM NaCl, 30 °C, apparent
[10] = substrate: O=C(/C=C/c1ccc(O)cc1)NCCc1ccc(O)cc1; experiment: as above; format: biochemical, Medicago truncatula; details: 100 mM NaCl, 30 °C, apparent
[11] = substrate: O=C(/C=C/c1ccc(O)cc1)N[C@H]1CCOC1=O; experiment: as above; format: biochemical, Medicago truncatula; details: 100 mM NaCl, 30 °C, apparent

Molecule: Medicago truncatula fatty acid amide hydrolase 1 (MtFAAH1) (enzyme)
- stoichiometry N [1]: 4

Molecule: Medicago truncatula fatty acid amide hydrolase 2a (MtFAAH2a) (enzyme)
- stoichiometry N [2]: 4

B1: Arabidopsis thaliana fatty acid amide hydrolase (AtFAAH) (enzyme)
chain: MGKYQVMKRASEVDLSTVKYKAETMKAPHLTGLSFKLFVNLLEAPLIGSLIVDYLKKDNGMTKIFRNTVIPEEPMFRPEFPSQEPEHDVVIVGEDESPIDRLETALKCLPQYDPSRSLHADPVSSFRYWKIRDYAYAYRSKLTTPLQVAKRIISIIEEFGYDKPPTPFLIRFDANEVIKQAEASTRRFEQGNPISVLDGIFVTIKDDIDCLPHPTNGGTTWLHEDRSVEKDSAVVSKLRSCGAILLGKANMHELGMGTTGNNSNYGTTRNPHDPKRYTGGSSSGSAAIVAAGLCSAALGTDGGGSVRIPSALCGITGLKTTYGRTDMTGSLCEGGTVEIIGPLASSLEDAFLVYAAILGSSSADRYNLKPSPPCFPKLLSHNGSNAIGSLRLGKYTKWFNDVSSSDISDKCEDILKLLSNNHGCKVVEIVVPELEEMRAAHVISIGSPTLSSLTPYCEAGKNSKLSYDTRTSFAIFRSFSASDYIAAQCLRRRLMEYHLNIFKDVDVIVTPTTGMTAPVIPPDALKNGETNIQVTTDLMRFVLAANLLGFPAISVPVGYDKEGLPIGLQIMGRPWAEATVLGLAAAVEELAPVTKKPAIFYDILNTN
notes: AtFAAH, fatty acid amide hydrolase (a FAAH1 enzyme), Arabidopsis thaliana; also called A. thaliana FAAH; AtFAAH1; source: recombinant, purified
- stoichiometry N [3]: 2

B2: MtFAAH2a (Medicago truncatula) (protein)
chain: MGLFKSKRVVYKPVKDVNLGPDSTEFYLQANVKAPRMTGILVKIVAWLLECRIIGAFLLYILKGNNLIHKYITNADIEEPPLYVPLHHFEDHKEQEVKSLDLALTPPDKVQVAIDCLPTTLQRPINGTKPSFNRWTIMDYFRAYSSGDITPHMVAERFIAAVDESSKPTLQMGFFINYNVEDILRQANESTLRYQKGEPISVLDGVPVAIKDEIDCLPYPTTGGTKWLHKQRPCTDDACCIKRLRLCGAVLVGKTNMHELGAGTSGINPHYGATRNPHNASRIAGGSSSGSAAVVSAGLCPVALGVDGGGSVRMPAALCGIVGLKPTFSRIPHSGVIPLNWTVGMVGILAGTVEDSLITYAAISGEIPSRQPSSIPAKINLPLLPLTKSISKIKLAKYGKWFDDCSDDVRICCSGALNKLQGHYGWKIVDVTIPEIEVMRLAHYSTIGSECNTSLDYFQDKNLADFGWDARVALKIYGSFSSMEYIKAQKIRNRQLQFHKKIFSEADIIVSPTTGVTAYPIQDDALKTGELDYVNGAALIRYSIAGNFLGLPAVTVPVGYDKLGLPIGLQFIGRPWAEATLIHLAFAMQTICLSEYRKPAIFYDLLRTN
notes: full-length synthesized CDS (GENEWIZ) subcloned in pTrcHIS2, C-terminal c-myc and 6xHis tags, E. coli; estimated homotetramer in DDM; catalytic Ser311
- Km ([4]; pH 7.5, 25 mM HEPES, 0.06% DDM): 7.64 ± 1.5 µM
- kcat ([4]; pH 7.5, 25 mM HEPES, 0.06% DDM): 1.28 s⁻¹
- Km ([5]; pH 7.5, 25 mM HEPES, 0.06% DDM): 15.1 ± 2.9 µM
- kcat ([5]; pH 7.5, 25 mM HEPES, 0.06% DDM): 0.60 s⁻¹
- Km ([6]; pH 7.5, 25 mM HEPES, 0.06% DDM): 18.7 ± 2.9 µM
- kcat ([6]; pH 7.5, 25 mM HEPES, 0.06% DDM): 0.35 s⁻¹
- Km ([7]; pH 7.5, 25 mM HEPES, 0.06% DDM): 13.2 ± 2.1 µM
- kcat ([7]; pH 7.5, 25 mM HEPES, 0.06% DDM): 1.11 s⁻¹
- Km ([8]; pH 7.5, 25 mM HEPES, 0.06% DDM): 14.6 ± 1.7 µM
- kcat ([8]; pH 7.5, 25 mM HEPES, 0.06% DDM): 0.96 s⁻¹
- Km ([9]; pH 7.5, 25 mM HEPES, 0.06% DDM): 13.8 ± 1.7 µM
- kcat ([9]; pH 7.5, 25 mM HEPES, 0.06% DDM): 1.26 s⁻¹
- Km ([10]; pH 7.5, 25 mM HEPES, 0.06% DDM): 10.8 ± 1.1 µM
- kcat ([10]; pH 7.5, 25 mM HEPES, 0.06% DDM): 1.51 s⁻¹
- Km ([11]; pH 7.5, 25 mM HEPES, 0.06% DDM): 13.8 ± 1.9 µM
- kcat ([11]; pH 7.5, 25 mM HEPES, 0.06% DDM): 1.64 s⁻¹

B3: MtFAAH1 (Medicago truncatula) (protein)
chain: MGKKRVMVPAKDVDLSSIKYEPEIVQAPHLTGFWFRFFVRLIEAPLIGPFLLTMLKKENKIDQLLRNTVFPEEPMFKPEYPPQEKEHSVVELDEDGRPEGRVESALNCLPHYDPAKLWENSSATFRYWKIRDYAYAYQSRKVTPSMVAESIISMIEENGIDKPPTPLLLSFDAAEVRKQAAASTQRFESGNPLSILDGIFIAIKDDIDCHPHPSTGGSTWMHEVRDVKKDAVCVSRLRSCGVIFIGKTNMHEFGMGTTGNNSNYGTARNPHAPDRYTGGSSSGPAAIVASGLCSAALGTDGGGSVRIPSSLCGVVGLKINYGRTSMEGSLCDSGTVEVIGPIASTVEDAMLVYAAMLGASPANRISMKPSTPCLPTLSSDDDTDALRSLRIGIYTPWFNNVHSTEVSDKCEDALNLLSKAHGCEVVEVVIPEIVEMRTAHLVSIGSECLSSLNPDIEDGKGVKLSYDTRTSLALFQSFTAADYVAAQCIRRRIMHYFMEIFKKVDVIVTPTTGMTAPRIPPSALKSGETDMPTTGYLMRFVVPANLLGLPAISVPVGYDKEGLPIGLQVIGRPWAEATILRVAAAVEKLCGESKRRPVTYYDVLGAN
notes: full-length CDS from A17 stem cDNA; C-terminal c-myc and 6xHis tags (pTrcHIS2), E. coli BL21(DE3); estimated homotetramer in DDM; catalytic Ser304
- Km ([4]; pH 9, 25 mM HEPES, 0.03% DDM): 6.81 ± 2.6 µM
- kcat ([4]; pH 9, 25 mM HEPES, 0.03% DDM): 0.32 s⁻¹
- Km ([5]; pH 9, 25 mM HEPES, 0.03% DDM): 4.83 ± 0.6 µM
- kcat ([5]; pH 9, 25 mM HEPES, 0.03% DDM): 1.05 s⁻¹
- Km ([6]; pH 9, 25 mM HEPES, 0.03% DDM): 5.00 ± 0.4 µM
- kcat ([6]; pH 9, 25 mM HEPES, 0.03% DDM): 1.25 s⁻¹
- Km ([7]; pH 9, 25 mM HEPES, 0.03% DDM): 5.33 ± 0.6 µM
- kcat ([7]; pH 9, 25 mM HEPES, 0.03% DDM): 0.87 s⁻¹
- Km ([8]; pH 9, 25 mM HEPES, 0.03% DDM): 5.60 ± 0.6 µM
- kcat ([8]; pH 9, 25 mM HEPES, 0.03% DDM): 0.79 s⁻¹
- Km ([9]; pH 9, 25 mM HEPES, 0.03% DDM): 13.9 ± 3.6 µM
- kcat ([9]; pH 9, 25 mM HEPES, 0.03% DDM): 0.86 s⁻¹
- Km ([10]; pH 9, 25 mM HEPES, 0.03% DDM): 25.9 ± 7.0 µM
- kcat ([10]; pH 9, 25 mM HEPES, 0.03% DDM): 0.51 s⁻¹
- Km ([11]; pH 9, 25 mM HEPES, 0.03% DDM): 10.2 ± 2.5 µM
- kcat ([11]; pH 9, 25 mM HEPES, 0.03% DDM): 0.33 s⁻¹
